{
  "source": "patent US20160116478A1",
  "about": "(ORDER MADE MEDICAL RESEARCH, published 2016)",
  "key": {"[1]": {"biological_target": "T1, partial protein of human LGR5 (amino acids 319 to 563) (human, UniProt O75473 319-563)", "T1 construct": "Run as crude E. coli culture lysate, denatured, on SDS-PAGE and Western blot; also called LGR5 partial protein; partial protein of LGR5; not shown: N-terminal Trx-, S- and His-tags from pET32a vector; C-terminal His-tag from pET32a vector", "T1 sequence": "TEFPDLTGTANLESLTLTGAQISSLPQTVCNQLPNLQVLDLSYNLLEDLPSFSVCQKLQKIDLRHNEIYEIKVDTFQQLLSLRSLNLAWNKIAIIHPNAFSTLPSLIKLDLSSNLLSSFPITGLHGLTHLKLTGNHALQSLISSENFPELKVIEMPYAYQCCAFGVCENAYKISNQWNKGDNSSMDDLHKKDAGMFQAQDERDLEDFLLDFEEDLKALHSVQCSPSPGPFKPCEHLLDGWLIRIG", "experiment": "Western blot of E. coli lysate expressing the partial protein", "experimental": "(§1) After electrophoresis, the proteins were transferred onto a PVDF membrane. Skimmed milk dissolved at a concentration of 5% (w/v) in TBS-T was used to block the membrane at room temperature for 30 minutes, and the membrane was washed twice with TBS-T. Among the monoclonal antibodies obtained in Example 1. (7), Mu2C15 was diluted to 1 μg/mL with TBS-T and reacted with the membrane for 1 hour at room temperature. After washing three times with TBS-T, anti-mouse IgG polyclonal antibody-HRP label was diluted 100,000-fold with TBS-T for use as a secondary antibody. This dilution was reacted with the membrane at room temperature for 30 minutes, followed by washing three times with TBS-T. The membrane was soaked in Immobilon and then wrapped, followed by signal detection with LAS-3000 (FIG. 15b)"}, "[2]": {"biological_target": "T2, partial protein of human LGR4 (amino acids 311 to 577) (human, UniProt Q9BXB1 311-577)", "T2 construct": "Run as crude E. coli culture lysate, denatured, on SDS-PAGE and Western blot; also called LGR4 partial protein; partial protein of LGR4; not shown: N-terminal Trx-, S- and His-tags from pET32b vector; C-terminal His-tag from pET32b vector", "T2 sequence": "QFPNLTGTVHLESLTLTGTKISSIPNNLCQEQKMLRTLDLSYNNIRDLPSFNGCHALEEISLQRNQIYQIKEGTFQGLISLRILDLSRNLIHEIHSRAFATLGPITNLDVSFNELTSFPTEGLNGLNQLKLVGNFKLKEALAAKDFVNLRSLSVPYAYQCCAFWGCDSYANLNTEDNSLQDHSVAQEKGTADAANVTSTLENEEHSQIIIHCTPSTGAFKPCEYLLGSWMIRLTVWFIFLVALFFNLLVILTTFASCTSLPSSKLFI", "experiment": "Western blot of E. coli lysate expressing the partial protein", "experimental": "as §1"}},
  "data": [
    {"binder": "Mu2C15 antibody (monoclonal antibody produced by Mouse-Mouse hybridoma Mu2C15) (antibody, V domains shown, Mouse hybridoma antibody; Used as culture supernatant or Protein G purified, and unlabeled when immobilized in the sandwich ELISA; also called clone No. Mu2C15; anti-LGR6 antibody) VH: QVQLQQSAAELARPGASVKMSCKASGYTFTTYTMHWVKQRPGQGLEWIGYINPNNGYTEFNQKFKDKTTLTADKSSSTAYMQLSSLTSEDSAVYYCARRDYYRFSTGFAYWGQGTLVTVSA VL: DVVMTQTPLSLPVSLGDQASISCRSSQSLVHTNGNTYLHWYLQKPGQSPKLLIYKVSNRFSGVPDRFSGSGSGTDFTLKISRVEAEDLGVYFCSQSTHVPYTFGGGTKLEIK", "values": [
      {"measurement": "binding result", "setting": "[1]", "value": "no binding (tested: 1 µg/mL)"},
      {"measurement": "binding result", "setting": "[2]", "value": "no binding (tested: 1 µg/mL)"}
    ]}
  ]
}
